Laboratory results from publication PMC8387239, “Structural and functional characterization of the intracellular filament-forming nitrite oxidoreductase multiprotein complex” (Nature Microbiology, 2021).
Each block holds one molecule with its values, some of them ahead of it.

Columns and labels:
[1] = target: T1, anammoxosomal tubules (NXR A, B, C and T subunits) (Candidatus Kuenenia stuttgartensis, UniProt Q1PZD8); assay: spectrophotometric, ferricyanide reduction at […] nm; assay type: biochemical; details: 2 mM sodium nitrite; 800 µM ferricyanide; 50 mM KPi, 150 mM NaCl, pH 7.25; 35 °C; without dodecyl maltoside
T1 construct: gene narG; native tubules purified from K. stuttgartiensis cells by size exclusion and sucrose density gradient; with nitrite oxidoreductase subunit B, iron-sulfur subunit (NarH-like); nitrite oxidoreductase subunit C, haem b-containing subunit; nitrite oxidoreductase tubule-inducing subunit T, monohaem cytochrome c

[2] = target: Broful_01488, NXR-T homologue from Brocadia fulgida, recombinant, N-terminal His-tag cleaved (Brocadia fulgida); assay: crystal structure; Broful_01488 after cleavage of the N-terminal His-tag; 0.02 M LiCl, 0.02 M glycine pH 10.0, 33% PEG 1000, 0.05 M MgCl2; 4.0-4.5 Å, partial model
[3] = target: NXR-T (Kustd1705), recombinant, as used for analytical ultracentrifugation (tagged version not stated) (Kuenenia stuttgartiensis); assay: AUC; sedimentation velocity and sedimentation equilibrium; 25 mM HEPES/KOH pH 7.5, 25 mM KCl; 25,000 or 30,000 r.p.m., 24 h, 20 °C; scans at 415 nm
[4] = target: NXR-T (Kustd1705), tubule-inducing NXR subunit, recombinant, N-terminal His-tag cleaved (Kuenenia stuttgartiensis); assay: cryo-EM structure; helical reconstruction of tubules reconstituted from KsNXR-ABC and Kustd1705, 5.8 Å after density modification
purified protein [5] = substrate: O=NO; assay: purified protein; assay type: biochemical, Candidatus Kuenenia stuttgartensis; details: 800 µM ferricyanide as electron acceptor, 50 mM KPi, 150 mM NaCl, pH 7.25, 35 °C
purified protein [6] = substrate: O=[N+]([O-])O; assay: purified protein; assay type: biochemical, Candidatus Kuenenia stuttgartensis; details: reduced methyl viologen as electron donor, 50 mM KPi, pH 7.2, 35 °C, anaerobic

T1 sequence (Q1PZD5 1-410 partner, one chain of several): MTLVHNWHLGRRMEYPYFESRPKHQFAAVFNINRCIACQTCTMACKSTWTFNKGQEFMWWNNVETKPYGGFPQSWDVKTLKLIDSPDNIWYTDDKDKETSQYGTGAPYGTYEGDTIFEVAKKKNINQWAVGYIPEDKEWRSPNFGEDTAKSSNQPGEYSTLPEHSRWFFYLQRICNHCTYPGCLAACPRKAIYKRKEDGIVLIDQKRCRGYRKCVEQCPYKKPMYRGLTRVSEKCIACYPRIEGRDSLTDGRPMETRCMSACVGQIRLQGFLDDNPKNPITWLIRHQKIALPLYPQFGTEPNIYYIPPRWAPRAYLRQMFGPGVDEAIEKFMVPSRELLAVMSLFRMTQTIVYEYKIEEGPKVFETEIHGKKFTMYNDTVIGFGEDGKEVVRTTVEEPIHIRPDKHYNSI
T1 sequence (Q1PZD4 29-322 partner, one chain of several): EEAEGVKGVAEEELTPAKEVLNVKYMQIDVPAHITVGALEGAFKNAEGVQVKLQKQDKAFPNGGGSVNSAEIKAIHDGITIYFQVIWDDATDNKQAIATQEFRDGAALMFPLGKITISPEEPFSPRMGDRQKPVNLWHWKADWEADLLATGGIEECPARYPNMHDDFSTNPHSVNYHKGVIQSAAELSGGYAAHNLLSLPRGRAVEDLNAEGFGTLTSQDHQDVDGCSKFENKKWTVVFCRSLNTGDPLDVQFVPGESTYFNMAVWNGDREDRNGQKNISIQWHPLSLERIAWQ
T1 sequence (A0A2C9CDL6 21-180 partner, one chain of several): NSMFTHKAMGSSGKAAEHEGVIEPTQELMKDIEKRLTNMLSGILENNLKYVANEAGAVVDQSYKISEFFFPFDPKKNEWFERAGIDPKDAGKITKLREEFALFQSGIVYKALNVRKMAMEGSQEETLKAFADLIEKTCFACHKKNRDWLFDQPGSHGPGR

Molecule: O=NO [nitrite]
spectrophotometric, ferricyanide reduction at 420 nm [1]: can be disassembled by adding the detergent dodecyl maltoside, show nitrite oxidation activity

stoichiometry N [2]: 2
Molecule: Broful_01488, NXR-T homologue from Brocadia fulgida, recombinant, N-terminal His-tag cleaved (natural protein)

stoichiometry N [3]: 2
Molecule: NXR-T (Kustd1705), recombinant, as used for analytical ultracentrifugation (tagged version not stated) (natural protein)

stoichiometry N [4]: 2
Molecule: NXR-T (Kustd1705), tubule-inducing NXR subunit, recombinant, N-terminal His-tag cleaved (natural protein)

B1: KsNXR-ABC (Candidatus Kuenenia stuttgartensis) (protein)
chain: FRLLKPAVVVDNPLDTYPDRRWESVYRDQYQYDRTFTYCCSPNDTHACRIRAFVRNNVMMRVEQNYDHQNYSDLYGNKATRNWNPRMCLKGYTFHRRVYGPYRLRYPLIRKGWKRWADDGFPELTPENKTKYMFDNRGNDELLRASWDEAFTYASKGIIHITKKYSGPEGAQKLIDQGYPKEMVDRMQGAGTRTFKGRGGMGLLGVIGKYGMYRFNNCLAIVDAHNRGVGPDQALGGRNWSNYTWHGDQAPGHPFSHGLQTSDVDMNDVRFSKLLIQTGKNLIENKMPEAHWVTEVMERGGKIVVITPEYSPSAQKADYWIPIRNNTDTALFLGITKILIDNKWYDADYVKKFTDFPLLIRTDTLKRVSPKDIIPNYKLQDISDGPSYHIQGLKDEQREIIGDFVVWDAKSKGPKAITRDDVGETLVKKGIDPVLEGSFKLKTIDGKEIEVMTLLEMYKIHLRDYDIDSVVSMTNSPKDLIERLAKDIATIKPVAIHYGEGVNHYFHATLMNRSYYLPVMLTGNVGYFGSGSHTWAGNYKAGNFQASKWSGPGFYGWVAEDVFKPNLDPYASAKDLNIKGRALDEEVAYWNHSERPLIVNTPKYGRKVFTGKTHMPSPTKVLWFTNVNLINNAKHVYQMLKNVNPNIEQIMSTDIEITGSIEYADFAFPANSWVEFQEFEITNSCSNPFIQIWGKTGITPVYESKDDVKILAGMASKLGELLRDKRFEDNWKFAIEGRASVYINRLLDGSTTMKGYTCEDILNGKYGEPGVAMLLFRTYPRHPFWEQVHESLPFYTPTGRLQAYNDEPEIIEYGENFIVHREGPEATPYLPNAIVSTNPYIRPDDYGIPENAEYWEDRTVRNIKKSWEETKKTKNFLWEKGYHFYCVTPKSRHTVHSQWAVTDWNFIWNNNFGDPYRMDKRMPGVGEHQIHIHPQAARDLGIEDGDYVYVDANPADRPYEGWKPNDSFYKVSRLMLRAKYNPAYPYNCTMMKHSAWISSDKTVQAHETRPDGRALSPSGYQSSFRYGSQQSITRDWSMPMHQLDSLFHKAKIGMKFIFGFEADNHCINTVPKETLVKITKAENGGMGGKGVWDPVKTGYTAGNENDFMKKFLNGELIKVDA
notes: untagged; with nitrite oxidoreductase subunit B, iron-sulfur subunit (NarH-like); nitrite oxidoreductase subunit C, haem b-containing subunit
Km (purified protein [5]): 22 ± 5 µM | Km (purified protein [6]): 14 ± 1 µM
